{"source": "patent US20200399344A1", "about": "(SHATTUCK LABS, published 2020)", "binders": {"B1": {"name": "recombinant human CD58-Fc fusion protein (rhCD58-Fc) (Fc fusion, UniProt P19256 29-215, looked up)", "chain": "FSQQIYGVVYGNVTFHVPSNVPLKEVLWKKQKDKVAELENSEFRAFSSFKNRVYLDTVSGSLTIYNLTSSDEDEYEMESPNITDTMKFFLYVLESLPSPTLTCALTNGSIEVQCMIPEHYNSHRGLIMYSWDCPMEQCKRNSTSIYFKMENDLPQKIQCTLSNPLFNTTSSIILTTCIPSSGHSRHR", "notes": "Positive control; also called recombinant hCD58-Fc protein; not shown: Fc"}, "B2": {"name": "recombinant human CD2 protein (rhCD2-His) (receptor, UniProt P06729 25-209, looked up)", "chain": "KEITNALETWGALGQDINLDIPSFQMSDDIDDIKWEKTSDKKKIAQFRKEKETFKEKDTYKLFKNGTLKIKHLKTDDQDIYKVSIYDTKGKNVLEKIFDLKIQERVSKPKISWTCINTTLTCEVMNGTDPELNLYQDGKHLKLSQRVITHKWTTSLSAKFKCTAGNKVSKESSVEPVSCPEKGLD", "notes": "also called recombinant CD2 protein; not shown: His tag"}}, "key": {"[1]": {"target": "T1, recombinant human 2B4 protein (rh2B4-His) (human, UniProt Q9BZW8-2 22-221, limits assumed)", "T1 construct": "also called recombinant 2B4-His protein; not shown: His tag", "T1 sequence (looked up)": "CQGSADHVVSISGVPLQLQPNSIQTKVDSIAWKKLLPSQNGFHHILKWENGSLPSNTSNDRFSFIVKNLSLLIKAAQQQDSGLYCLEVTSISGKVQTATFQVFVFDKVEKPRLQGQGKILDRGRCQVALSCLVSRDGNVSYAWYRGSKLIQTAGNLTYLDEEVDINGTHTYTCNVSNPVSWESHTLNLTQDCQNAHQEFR", "experiment": "ELISA: coat rh2B4-His (Sino 10042-H08H), detection Anti-hFc-HRP", "method": "Increasing amounts of the indicated chimeric proteins or rhCD48-Fc were added and detected using an anti-mFc-HRP (for mCD80-Fc-NKG2A) or anti-hFc-HRP (for rest of the proteins).\nCD48 is the ligand for 2B4. To understand whether the CD48 parts of the hCD48-Fc-NKG2A chimeric protein can bind 2B4, ELISA-based assays were performed. Briefly, recombinant human 2B4 protein (rh2B4-His) was coated on plates and increasing amounts of the hCD48-Fc-NKG2A and mCD80-Fc-NKG2A chimeric proteins and recombinant human CD48-Fc (rhCD48-Fc) protein was added to the plates for capture by the plate-bound recombinant 2B4 protein. The hCD48-Fc-NKG2A chimeric protein and recombinant human CD48-Fc (rhCD48-Fc) protein bound to the recombinant 2B4 protein was detected using an anti-human Fc HRP. The mCD80-Fc-NKG2A chimeric protein, which was used as a negative control, bound to the recombinant 2B4 protein was detected using an anti-mouse Fc HRP."}, "[2]": {"target": "B2", "experiment": "ELISA: coat rhCD2-His (Acro CD2-H5226), detection Anti-hFc-HRP", "method": "(§1) Recombinant human CD2 (rhCD2) protein was coated on plates. Increasing amounts of the indicated chimeric proteins or Recombinant human CD58-Fc fusion protein (rhCD58-Fc) were added and detected using an anti-mFc-HRP (for mCD80-Fc-NKG2A) or anti-hFc-HRP (for rest of the proteins).\n(§2) CD2 is a transmembrane protein in T cells that binds to its ligand CD58 on APC in humans and on CD48 in rodents. To understand whether the CD48 and CD58 parts of the hCD48-Fc-NKG2A, and hCD58-Fc-NKG2A chimeric protein can bind CD2, ELISA-based assays were performed. Briefly, recombinant human CD2 protein (rhCD2-His) was coated on plates and increasing amounts of the hCD48-Fc-NKG2A, hCD58-Fc-NKG2A, and mCD80-Fc-NKG2A chimeric proteins and recombinant hCD58-Fc protein was added to the plates for capture by the plate-bound recombinant CD2 protein. The […] chimeric protein served as a negative control and recombinant hCD58-Fc protein served as a positive control. The hCD48-Fc-NKG2A and hCD58-Fc-NKG2A, chimeric proteins and recombinant hCD58-Fc protein bound to the recombinant CD2 protein was detected using an anti-human Fc HRP. The mCD80-Fc-NKG2A chimeric protein bound to the recombinant CD2 protein was detected using an anti-mouse Fc HRP."}, "[3]": {"target": "B1", "experiment": "ELISA: coat rhCD2-His (Acro CD2-H5226), detection Anti-hFc-HRP", "method": "as §1, §2"}, "[4]": {"target": "T2, anti-human IgG antibody (plate-bound)", "T2 construct": "also called anti-human Fc antibody", "experiment": "ELISA (single sided Fc): coat Anti-Human IgG (H+L) Jax# 109-005-088, detection HRP Goat anti-human FCgamma", "method": "Anti-human IgG was coated on plates and increasing amounts of the indicated chimeric proteins were added to the plates. hIgG was used as a positive control, and mCD80-Fc-NKG2A was used as a negative control. The binding was detected using an anti-human Fcgamma HRP.\nTo understand whether the Fc linkers from the native chimeric proteins can be accessed by anti-human antibodies, ELISA-based assays were performed. For these assays, an anti-human IgG antibody was coated on plates and increasing amounts of the hCD86-Fc-NKG2A and hTGFBR2-Fc-NKG2A, mCD80-Fc-NKG2a chimeric proteins, and a human IgG antibody were added to the plates for capture by the plate-bound anti-human antibody. The human IgG antibody was used as a positive control and to generate a standard curve. The mCD80-Fc-NKG2a chimeric protein was included as a negative control as containing a non-human Fc domain. The protein bound to the anti-human IgG antibody was detected using an anti-human Fcgamma HRP."}, "[5]": {"target": "T3, recombinant HLA-E-His protein (human, UniProt P13747 22-305, limits assumed)", "T3 construct": "also called recombinant HLA-E (HLA-E-His); not shown: His tag", "T3 sequence (P13747 22-305 limits assumed)": "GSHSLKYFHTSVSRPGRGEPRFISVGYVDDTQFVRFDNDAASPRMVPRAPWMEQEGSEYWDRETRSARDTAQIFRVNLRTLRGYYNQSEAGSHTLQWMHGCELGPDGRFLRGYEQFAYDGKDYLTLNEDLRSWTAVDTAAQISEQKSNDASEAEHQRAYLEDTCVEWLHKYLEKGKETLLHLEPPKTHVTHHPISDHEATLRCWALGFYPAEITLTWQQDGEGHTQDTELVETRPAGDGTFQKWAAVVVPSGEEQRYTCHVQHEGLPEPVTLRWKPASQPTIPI", "experiment": "ELISA: the chimeric protein is the titrated coat (1:3), detection HLA-E-His (Novus NBP2-47435PEP), HRP Anti-6x-His-HRP", "method": "(§3) Similarly, increasing amounts of the hTGFBR2-Fc-NKG2A and hSLAMF6-Fc-NKG2A chimeric proteins chimeric proteins or a negative control protein was coated on plates. Recombinant HLA-E-His protein was added to the plates for capture by the plate-bound chimeric proteins or the negative control protein. The captured HLA-E-His protein was detected using an anti-6×-His-HRP antibody."}, "[6]": {"target": "T4, hCD2 expressed on CHO-K1/hCD2 cells (human, UniProt P06729 25-351)", "T4 construct": "whole, on cells", "T4 sequence (looked up)": "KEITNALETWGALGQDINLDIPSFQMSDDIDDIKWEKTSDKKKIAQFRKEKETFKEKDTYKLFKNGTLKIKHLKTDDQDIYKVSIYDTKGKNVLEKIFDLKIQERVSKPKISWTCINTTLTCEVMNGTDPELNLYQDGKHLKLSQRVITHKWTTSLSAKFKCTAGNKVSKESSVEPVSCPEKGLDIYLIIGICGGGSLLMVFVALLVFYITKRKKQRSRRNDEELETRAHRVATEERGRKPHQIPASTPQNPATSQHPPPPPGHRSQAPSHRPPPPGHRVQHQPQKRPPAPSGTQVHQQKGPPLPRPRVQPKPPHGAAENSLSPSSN", "experiment": "flow cytometry cell binding assay, CHOk1 cells, axis label GEO Mean - PE MFI"}, "[7]": {"target": "T3, recombinant HLA-E-His protein", "experiment": "ELISA: the chimeric protein is the titrated coat (1:3), detection HLA-E-His (Novus NBP2-47435PEP), HRP Anti-6x-His-HRP", "method": "as §3, with “In a complementary experiment,” for “Similarly,”, “hCD48-Fc-NKG2A, hCD58-Fc-NKG2A,” for “hTGFBR2-Fc-NKG2A”, “hCD80-Fc-NKG2A” for “hSLAMF6-Fc-NKG2A chimeric proteins”", "remark": "listed apart in the source"}, "[8]": {"target": "T5, recombinant human SLAMF6-Fc (rhSLAMF6-Fc) protein (human, UniProt Q96DU3 22-226)", "T5 construct": "not shown: Fc", "T5 sequence (looked up)": "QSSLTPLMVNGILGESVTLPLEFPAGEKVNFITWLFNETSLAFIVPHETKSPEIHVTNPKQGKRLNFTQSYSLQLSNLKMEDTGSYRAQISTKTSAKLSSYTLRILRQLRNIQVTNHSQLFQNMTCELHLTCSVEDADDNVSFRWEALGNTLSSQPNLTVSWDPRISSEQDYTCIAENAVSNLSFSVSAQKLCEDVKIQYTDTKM", "experiment": "dual ELISA; coat rhSLAMF6-Fc, hSLAMF6-Fc-NKG2a titrated, detection HLA-E-His, Anti-His-6x-HRP; the signal needs both bindings", "method": "Increasing amounts of the hSLAMF6-Fc-NKG2A chimeric protein was added and detected using HLA-E-His. A chimeric protein comprising ECD of a type II transmembrane protein other than NKG2A was used as a negative control.\nTo understand whether the hSLAMF6-Fc-NKG2A chimeric protein can binds simultaneously to both hSLAMF6 and HLA-E, the following ELISA experiment was carried out. Briefly, and recombinant hSLAMF6 (rhSLAMF6-Fc) protein was coated on plates. Increasing amounts of the hSLAMF6-Fc-NKG2A chimeric protein was added to the plates for capture by the recombinant human SLAMF6-Fc (rhSLAMF6-Fc) protein. Further, recombinant HLA-E (HLA-E-His) protein was added to the plate for capture by hSLAMF6-Fc-NKG2A chimeric protein. The binding of the HLA-E-His protein was detected using an anti-His 6× HRP antibody."}}, "note": "Like-named read-outs stand apart in the source and are kept apart here."}
{"binder": "recombinant human CD48-Fc (rhCD48-Fc) protein (Fc fusion, UniProt P09326 27-220, looked up, Comparator; not shown: Fc) QGHLVHMTVVSGSNVTLNISESLPENYKQLTWFYTFDQKIVEWDSRKSKYFESKFKGRVRLDPQSGALYISKVQKEDNSTYIMRVLKKTGNEQEWKIKLQVLDPVPKPVIKIEKIEDMDDNCYLKLSCVIPGESVNYTWYGDKRPFPKELQNSVLETTLMPHNYSRCYTCQVSNSVSSKNGTVCLSPPCTLARS", "values": [{"measurement": "binding result", "setting": "[1]", "value": "binds"}]}
{"binder": "B1", "values": [{"measurement": "EC50 (read off the curve)", "setting": "[2]", "value": "~1", "unit": "µg/mL"}]}
{"binder": "B2", "values": [{"measurement": "binding result", "setting": "[3]", "value": "binds"}]}
{"binder": "human TGFBR2-Fc-NKG2A chimeric protein (Fc fusion, also called hTGFBR2-Fc-NKG2A) not shown", "values": [{"measurement": "EC50 (read off the curve)", "setting": "[4]", "value": "~10", "unit": "µg/mL"}, {"measurement": "EC50 (read off the curve)", "setting": "[5]", "value": "~5", "unit": "µg/mL"}]}
{"binder": "human CD58-Fc-NKG2A chimeric protein (Fc fusion, also called hCD58-Fc-NKG2A) not shown", "values": [{"measurement": "EC50 (read off the curve)", "setting": "[6]", "value": "~1", "unit": "µg/mL"}, {"measurement": "EC50 (read off the curve)", "setting": "[7]", "value": "~0.7", "unit": "µg/mL"}]}
{"binder": "human SLAMF6-Fc-NKG2A chimeric protein (Fc fusion, also called hSLAMF6-Fc-NKG2A) not shown", "values": [{"measurement": "EC50 (read off the curve)", "setting": "[5]", "value": "~6", "unit": "µg/mL"}, {"measurement": "EC50 (read off the curve)", "setting": "[8]", "value": "~30", "unit": "µg/mL"}]}
